Tests used:
Assay in all cases: EMSA
[1] = system: GlrR-His10 (E. coli) (Escherichia coli)
[2] = molecular target: T1, GlrR-His10 (E. coli) (Escherichia coli) (UniProt P0AFU4)
T1 sequence: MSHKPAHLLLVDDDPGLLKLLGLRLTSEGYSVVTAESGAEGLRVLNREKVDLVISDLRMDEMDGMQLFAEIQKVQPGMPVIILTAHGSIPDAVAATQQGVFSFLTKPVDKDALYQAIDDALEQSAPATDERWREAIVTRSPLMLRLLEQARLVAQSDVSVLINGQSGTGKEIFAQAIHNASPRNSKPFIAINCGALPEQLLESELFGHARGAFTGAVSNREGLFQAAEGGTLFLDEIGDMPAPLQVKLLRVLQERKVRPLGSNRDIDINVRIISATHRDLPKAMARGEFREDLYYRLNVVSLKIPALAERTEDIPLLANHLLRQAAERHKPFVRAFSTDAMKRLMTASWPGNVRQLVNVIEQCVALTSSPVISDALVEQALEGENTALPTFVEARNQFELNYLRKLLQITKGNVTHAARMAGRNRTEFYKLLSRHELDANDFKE

[3] = system: GlrR-His10 (Y. pseudotuberculosis) (Yersinia pseudotuberculosis)
[4] = system: GlrR-His10 (Y. pseudotuberculosis) (Yersinia pseudotuberculosis), ORF:f09f451a
IHF = IHF (UniProt P0A6X7+P0A6Y1)
Sequence of UniProt P0A6X7 (P0A6X7 2-99, chain 1 of 2): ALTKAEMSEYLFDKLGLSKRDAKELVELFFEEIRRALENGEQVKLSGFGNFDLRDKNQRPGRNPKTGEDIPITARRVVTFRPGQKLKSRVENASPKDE
Sequence of UniProt P0A6X7 (P0A6Y1 whole entry, chain 2 of 2): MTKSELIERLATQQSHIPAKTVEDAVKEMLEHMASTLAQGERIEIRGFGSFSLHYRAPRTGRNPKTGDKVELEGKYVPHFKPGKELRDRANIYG

Row | Substance | Kd [1] [nM] | Kd [2] [nM] | also measured
1 | E. coli glmY promoter (-238 to +22) | 360 | – | –
2 | S. typhimurium glmY promoter (-242 to +22) | 230 | – | –
3 | ATTAATGCAGCTGGCACGACAGGTTTCCCGACTGGAAAGCGGGCAGTGAGCGCAACGCAATTAATGTGAGTTAGCTCACTCATTAGGCACCCCAGGCTTTACACTTTATGCTTCCGGCTCGTATGTTGTGTGGAATTGTGAGCGGATAACAATTTCACACAGGAAACAGCTATGACCATGATTACGGATTCACTGGCCGT (double strand) [lacZ promoter 200 bp control] | – | – | binding [2]: no binding
4 | Y. pseudotuberculosis glmZ promoter (-303 to +22) | 370 | – | binding signal (fold higher protein than E. coli GlrR) [3]: 4
5 | Y. pseudotuberculosis glmY promoter (-257 to +22) | 290 | – | –
6 | GCTCTAGAATAAGTCGGTGAATGAGCCACTGGTTACTATTATGCAGTAACTGTGCCAATAAAGAAAATAGTTTGGTAACGTACTGATTATACGTTGCTTTGAGGGGTTTATGTCTCCTCCGCTGTTTGAATGTAAATCAGCCACTGTGTCGCTAAAAAGAGACAACTTAAGATAAACTTATTAGATAATATTAAAATCAATGAGTTAAGTGTCGCCAGAAAGCGACACGGCAAACCACCCATTGTCGTGATTTACAGACACAAAAAAGGTCGACGCGTGC (double strand) [E. coli glmY promoter (-238 to +22)] | – | 360 | binding [2]: binds; binding [4]: binds; binding (IHF): binds
7 | GCACGCGTCGACGTGTTGCCATTATGATTTGTTGGCGATATCCCAGGCTTCATTTGTCGCTATTCGGTGACGAGTAATCTATTGATTTATAATCACTTTGTAAAAAGCATCCTGTTCTGTCTCCACCGGGCGACACGCTAAAACCTCGCCAGCGGCGGGGGGATGACAATCGCGTGAATTCTCTACGTTTTTTTAATGCCTGCGCCTGTTTTTTAGCGGTGCAAAGATGGCACGTTATGTGCAATAATGTACGGGTAGATGCTCATTCCATCTCTTATCTAGAGACG (double strand) [S. typhimurium glmZ promoter (-242 to +22)] | – | 370 | –
8 | S. typhimurium glmZ promoter (-242 to +22) | 370 | – | –
9 | CGTCTCTAGACATAAGAAGGTGAATGAGCCACTGGTTACCATTATGCAGTAATTGTGCCAACATTCAAAAGAATTTGTTAACATAATGATAGATATGAAAAATATCGTTATTCATGCTAAAAATGGCTCTGTCTGTTTTTTGCCCTTTCTGTCGCCAATCAGCAACACCTGCAACACCTAAAAATAAAACAATTTAAAATCAAATAGTTAAATGTCTCTTTTTGGCGACAACCTATCCCCCACTCATGTCGGGATTTCCCGACACTTTAATCTTGGTCGACGCGTGC (double strand) [S. typhimurium glmY promoter (-242 to +22)] | – | 230 | –

Reference: article PMC3045617
